The values that follow come from the supplement of paper PMC11246515.

This data set in a line: total protein half-life in vivo (active degradation + dilution); higher = more stable protein.
Where [1] appears, read: E. coli NCM3722 delta-clpP delta-lon delta-hslV, growth: N-lim chemostat, doubling time 6 h.
The mark [2] stands for this setting: E. coli NCM3722 delta-clpP, growth: N-lim chemostat, doubling time 6 h.
[3] abbreviates: E. coli NCM3722 delta-hslV, growth: N-lim chemostat, doubling time 6 h.
[4] abbreviates: E. coli NCM3722 delta-lon, growth: N-lim chemostat, doubling time 6 h.
[5] abbreviates: E. coli NCM3722 delta-smpB, growth: N-lim chemostat, doubling time 6 h.
Where [6] appears, read: wild type E. coli NCM3722, growth: C-lim chemostat, doubling time 6 h.
Setting [7] is: wild type E. coli NCM3722, growth: C-lim chemostat, doubling time 12 h.
Setting [8] is: wild type E. coli NCM3722, growth: N-lim chemostat, doubling time 6 h.
Where [9] appears, read: wild type E. coli NCM3722, growth: N-lim chemostat, doubling time 12 h.
The mark [10] stands for this setting: wild type E. coli NCM3722, growth: P-lim chemostat, doubling time 6 h.
Where [11] appears, read: wild type E. coli NCM3722, growth: P-lim chemostat, doubling time 12 h.
Setting [12] is: wild type E. coli NCM3722, growth: C-lim chemostat, doubling time 3 h.

± gives the standard deviation of the averaged measurements.

For “MSDEGLAPGKRLSEIRQQQGLSQRRAAELSGLTHSAISTIEQDKVSPAISTLQKLLKVYGLSLSEFFSEPEKPDEPQVVINQDDLIEMGSQGVSMKLVHNGNPNRTLAMIFETYQPGTTTGERIKHQGEEIGTVLEGEIVLTINGQDYHLVAGQSYAINTGIPHSFSNTSAGICRIISAHTPTTF [P0A9U6]”, the “total protein half-life in vivo” value is, setting by setting: under setting [1], 5.35 ± 0.67 h; under setting [2], 5.41 ± 3.1 h; under setting [3], 3.29 h; under setting [4], 4.06 ± 0.25 h; under setting [5], 2.66 ± 0.063 h; under setting [6], 4.03 ± 0.12 h. The “total protein half-life in vivo” value by setting is: under setting [7], 5.53 ± 0.11 h; under setting [8], 2.7 ± 0.51 h; under setting [9], 3.47 ± 0.064 h; under setting [10], 4.43 ± 0.92 h; under setting [11], 6.69 ± 0.82 h.
Turning to “MSKPPLFFIVIIGLIVVAASFRFMQQRREKADNDMAPLQQKLVVVSNKREKPINDRRSRQQEVTPAGTSIRYEASFKPQSGGMEQTFRLDAQQYHALTVGDKGTLSYKGTRFVSFVGEQ”, the “total protein half-life in vivo” value under setting [2] came out at 6.5 h; the “total protein half-life in vivo” value under setting [3] worked out at 6.4 ± 0.69 h; the “total protein half-life in vivo” value under setting [4] came to 5.45 ± 0.15 h; the “total protein half-life in vivo” value under setting [5] is 5.65 ± 0.38 h; the “total protein half-life in vivo” value under setting [12] stood at 3.61 ± 0.1 h; the “total protein half-life in vivo” value under setting [6] turned out to be 6.11 ± 0.42 h. The “total protein half-life in vivo” value by setting is: under setting [7], 11.6 ± 0.63 h; under setting [8], 5.71 ± 0.065 h; under setting [9], 11.3 ± 0.54 h; under setting [10], 5.66 ± 0.5 h; under setting [11], 11.5 ± 0.14 h.
As to “MSNKPFIYQAPFPMGKDNTEYYLLTSDYVSVADFDGETILKVEPEALTLLAQQAFHDASFMLRPAHQKQVAAILHDPEASENDKYVALQFLRNSEIAAKGVLPTCQDTGTAIIVGKKGQRVWTGGGDEETLSKGVYNTYIEDNLRYSQNAALDMYKEVNTGTNLPAQIDLYAVDGDEYKFLCVAKGGGSANKTYLYQETKALLTPGKLKNFLVEKMRTLGTAACPPYHIAFVIGGTSAETNLKTVKLASAHYYDELPTEGNEHGQAFRDVQLEQELLEEAQKLGLGAQFGGKYFAHDIRVIRLPRHGASCPVGMGVSCSADRNIKAKINREGIWIEKLEHNPGQYIPQELRQAGEGEAVKVDLNRPMKEILAQLSQYPVSTRLSLTGTIIVGRDIAHAKLKELIDAGKELPQYIKDHPIYYAGPAKTPAGYPSGSLGPTTAGRMDSYVDLLQSHGGSMIMLAKGNRSQQVTDACHKHGGFYLGSIGGPAAVLAQQSIKHLECVAYPELGMEAIWKIEVEDFPAFILVDDKGNDFFQQIVNKQCANCTK”, the “total protein half-life in vivo” value by setting is: under setting [1], 5.77 ± 0.79 h; under setting [3], 4.08 ± 0.13 h; under setting [4], 4.19 ± 0.42 h; under setting [5], 3.86 ± 0.25 h; under setting [12], 3.08 ± 0.042 h; under setting [6], 5.65 ± 0.69 h. For the same sequence, the “total protein half-life in vivo” value runs as follows: under setting [7], 9.34 ± 1.8 h; under setting [8], 4.28 ± 0.48 h; under setting [9], 5.98 ± 0.31 h; under setting [10], 5.73 h; under setting [11], 11.2 ± 0.73 h.
Turning to “MAFSQAVSGLNAAATNLDVIGNNIANSATYGFKSGTASFADMFAGSKVGLGVKVAGITQDFTDGTTTNTGRGLDVAISQNGFFRLVDSNGSVFYSRNGQFKLDENRNLVNMQGLQLTGYPATGTPPTIQQGANPTNISIPNTLMAAKTTTTASMQINLNSSDPLPTVTPFSASNADSYNKKGSVTVFDSQGNAHDMSVYFVKTGDNNWQVYTQDSSDPNSIAKTATTLEFNANGTLVDGAMANNIATGAINGAEPATFSLSFLNSMQQNTGANNIVATTQNGYKPGDLVSYQINDDGTVVGNYSNEQTQLLGQIVLANFANNEGLASEGDNVWSATQSSGVALLGTAGTGNFGTLTNGALEASNVDLSKELVNMIVAQRNYQSNAQTIKTQDQILNTLVNLR”, the “total protein half-life in vivo” value runs as follows: under setting [1], 3.24 ± 0.9 h; under setting [2], 7.78 h; under setting [5], > 8 h; under setting [12], 1.2 ± 0.066 h; under setting [6], 2.23 ± 0.38 h; under setting [7], 3.51 ± 0.74 h.
In the case of “MNVVILDTGCANLNSVKSAIARHGYEPKVSRDPDVVLLADKLFLPGVGTAQAAMDQVRERELFDLIKACTQPVLGICLGMQLLGRRSEESNGVDLLGIIDEDVPKMTDFGLPLPHMGWNRVYPQAGNRLFQGIEDGAYFYFVHSYAMPVNPWTIAQCNYGEPFTAAVQKDNFYGVQFHPERSGAAGAKLLKNFLEM”, the “total protein half-life in vivo” value is, setting by setting: under setting [1], 5.66 ± 1.5 h; under setting [2], 4.08 ± 0.64 h; under setting [3], 4.08 ± 0.044 h; under setting [4], 4.11 ± 0.85 h; under setting [5], 4.11 ± 0.27 h; under setting [12], 3.16 ± 0.23 h. The “total protein half-life in vivo” value reads like this: under setting [6], 5.31 ± 0.46 h; under setting [7], 10.5 ± 0.7 h; under setting [8], 4.46 ± 0.29 h; under setting [9], 7.8 ± 1.1 h; under setting [10], 5.78 ± 0.17 h; under setting [11], 11.3 ± 0.22 h.
As to “MSFVVIIPARYASTRLPGKPLVDINGKPMIVHVLERARESGAERIIVATDHEDVARAVEAAGGEVCMTRADHQSGTERLAEVVEKCAFSDDTVIVNVQGDEPMIPATIIRQVADNLAQRQVGMATLAVPIHNAEEAFNPNAVKVVLDAEGYALYFSRATIPWDRDRFAEGLETVGDNFLRHLGIYGYRAGFIRRYVNWQPSPLEHIEMLEQLRVLWYGEKIHVAVAQEVPGTGVDTPEDLERVRAEMR”, the “total protein half-life in vivo” value was 4.88 ± 0.51 h under setting [1]; 4.7 ± 0.29 h under setting [2]; 4.68 ± 0.45 h under setting [3]; 4.949 ± 0.04 h under setting [4]; 4.68 ± 0.18 h under setting [5]; 2.84 ± 0.45 h under setting [12]. For the same sequence, the “total protein half-life in vivo” value amounted to 6.6 ± 0.59 h under setting [6]; 10.8 ± 0.44 h under setting [7]; 4.72 ± 0.32 h under setting [8]; 7.79 ± 0.56 h under setting [9]; 5.81 ± 0.29 h under setting [10]; 12.6 ± 0.66 h under setting [11].
In the case of “MVTKKQSRVPGRPRRFAPEQAISAAKVLFHQKGFDAVSVAEVTDYLGINPPSLYAAFGSKAGLFSRVLNEYVGTEAIPLADILRDDRPVGECLVEVLKEAARRYSQNGGCAGCMVLEGIHSHDPQARDIAVQYYHAAETTIYDYIARRHPQRAQCVTDFMSTVMSGLSAKAREGHSIEQLCATAAMAGEAIKTILEE”, the “total protein half-life in vivo” value is 4.87 ± 0.78 h under setting [1]; 4.19 ± 0.7 h under setting [2]; 5.66 ± 2.6 h under setting [4]; 2.87 ± 0.24 h under setting [5]; 2.66 ± 0.17 h under setting [12]; 4.19 h under setting [6]. Also, the “total protein half-life in vivo” value under setting [7] turned out to be 4.59 ± 4.8 h, the “total protein half-life in vivo” value under setting [8] was determined as 3.48 ± 0.37 h, the “total protein half-life in vivo” value under setting [9] came out at 6.59 ± 0.21 h and the “total protein half-life in vivo” value under setting [11] was 6.26 h.
